These results are taken from the supplement of paper PMC9170038.

The subject of series [1] is MS2 coat protein. The series can be described thus: apparent KD of MS2 coat protein, switch OFF state (with FMN for OFF switches, without FMN for ON switches); designed switch direction (-1 OFF switch, 1 ON switch): -1; higher = weaker reporter binding. To be noted: FMN input: 0 or 200 uM; Eterna round: R93 (includes R88 designs). In short, it runs like this:
(§1)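 Apparent KD per design is the median of normalised cluster binding-curve fits. Designed RNA switches transcribed on-chip from Illumina sequencing clusters were titrated with SNAP-549-labelled MS2 coat protein in twofold steps from 0.7 or 1.5 nM to 3 µM, with 0.8–1.5 h down to 10–20 min per step. Buffer: 100 mM Tris-HCl pH 7.5, 80 mM KCl, 4 mM MgCl2, without or with constant ligand.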

In series [2] the test system is MS2 coat protein. The series can be described thus: apparent KD of MS2 coat protein, switch ON state; designed switch direction (-1 OFF switch, 1 ON switch): -1; higher = weaker reporter binding. To be noted: FMN input: 0 or 200 uM; Eterna round: R93 (includes R88 designs). In short, it runs like this: as §1

With “AAAAAGUGAGGAUAUACAUGAGGAUCACCCAUGUGAAGGGAAGAAAGAAAGAAAGAAAGUAGAAGGCACAAAAA [Default title]”, the “apparent KD of MS2 coat protein” value came out at 0.222 µM in series [1] and 0.0511 µM in series [2].
The matching figures for “AAAAAGUGAGGAUAUACGCUGUGGAGUAGACACAACCAGGCGUAGAAGGCACAUGAGGAUCACCCAUGUCCAAA [EX4 Malc#18]”: 0.0441 µM and 0.0239 µM.
The matching figures for “AAAAAGUGAGGAUAUAGCAAAGGUCACGAAAGUGACAAAGGCUAGAAGGCACAUGAGGAUCACCCAUGUCCAAG [Mat - Exclusion 4 - Eli mod - D98]”: 0.0565 µM and 0.0286 µM.
The matching figures for “AAAAAGUGAGGAUAUUCGGAAGGGAAAGCGCAAACCCAACCGAAGAAGGCACAUGAGGAUCACCCAUGUGAAAA [Ecls4-III 65% - Early + late G segment 1]”: 0.033 µM and 0.0212 µM.
For “AAAAAGUGAGGAUAUUCGGAAGGGAAAGCGCAAACCCAACCGAAGAAGGCACAUGAGGAUCACCCAUGUGGAAG [Mat - Exaclusion 4 - Eli mod - D57]”, the “apparent KD of MS2 coat protein” value came to 0.0302 µM in series [1] and 0.0295 µM in series [2].
The matching figures for “AAAAAGUUAGGAUAUACAUGAGGAUCACCCAUGUGCACAUAUGGAGAAUAUGGUAGUAGUAGAAGGGACAAAAA [EX2 Malc#16]”: 0.0333 µM and 0.0303 µM.
The matching figures for “AAAAAUGGAGGAUAUACAUGAGGAUCACCCAUGUGUGGGCAUACUGUGUCGGCGUCAGGUAGAAGGCCAAAAAA [Gilly Gone Silly 27 - Jieux - Exclusion 3]”: 0.0478 µM and 0.0365 µM.
The matching figures for “AAAAAUUGAGGAUAUACAUGAGGAUCACCCAUGUUAGAACAAAAAAAAGGGAAAGAAAGUAGAAGGCAAUAAAA [Ex 3 May 26]”: 0.0269 µM and 0.02 µM.
With “AAAACGAUAGGAUAUACAUGAGGAUCACCCAUGUUAAAAUGUAGAAGGCUGAAAAAAAGUAGAAGGAUCAAAAA [EXC - 3]”, the “apparent KD of MS2 coat protein” value in series [1] turned out to be 0.0344 µM; in series [2] it was 0.0295 µM.
On to “AAAACGUGAGGAUAUGCACCAAAAAAGAAAAAACGGGUACGACAUGAGGAUCACCCAUGUAGAAGGCACGAAAA [Frodo Flailing 8 - Jieux - Exclusion 2]”, for which the figures for the “apparent KD of MS2 coat protein” value in series [1] and in series [2] were 0.0372 µM and 0.0353 µM, respectively.
The matching figures for “AAAAGACAUGAGGAUCACCCAUGUCAGGAUAUGACUUGAAAAAUAAAAUAAAAACAUGUCAGAAGGGACAUGAA [Design 46: Sub-opt DB]”: 0.0252 µM and 0.0285 µM.
The matching figures for “AAAAGACAUGAGGAUCACCCAUGUGAGGAUAUCGGAAAAGGAAAAAUAAAAAAGAAGACGAGAAGGCACACCAA [Mat - Exclusion 1 - Eli mod - D75]”: 0.0482 µM and 0.0439 µM.
The matching figures for “AAAAGGGCAGGAUAUGCAUGUUGGCAAAAUUCUCAUCAAACACAUGAGGAUCACCCAUGUAGAAGGGCCAACGG [Inonenonat]”: 0.161 µM and 0.11 µM.
For the sequence “AAAAGGUCAGGAUAUGCCCACCUGGUGGAAAAACCAGGUGGGCAGAAGGGACAUGAGGAUCACCCAUGUAAAAA [Excls4-Ii]”, the entries for the “apparent KD of MS2 coat protein” value in series [1] and in series [2] were 0.0782 µM and 0.0531 µM, respectively.
Take “AAAAUACAUGAGGAUCACCCAUGUGAGGAUAUGCAAAACCCAUAUAAAAAGGGAAAAAGCAGAAGGCACAAAAA [wbt round 1 mod 15]”: the “apparent KD of MS2 coat protein” value in series [1] came to 0.0529 µM; in series [2] it was 0.033 µM.
As for “AAAAUGUCAGGAUAUGUAAAAAAAAAAAAAAAAAAAAAAAUACAGAAGGGACAUGAGGAUCACCCAUGUCAGGG [EX4 390: Minimal 2]”, the results for the “apparent KD of MS2 coat protein” value in series [1] and in series [2] were 0.079 µM and 0.113 µM, respectively.
The matching figures for “AAACAGGGAGGAUAUACACCAUACAAACCUCUAAACAAAAGACAUGAGGAUCACCCAUGUAGAAGGCCCAACAA [Default title]”: 0.103 µM and 0.0575 µM.
As to “AAACCACAUGAGGAUCACCCAUGUAAGGAUAUGAACGAAAAUAAAUAAAAAUAAAAGUUCAGAAGGUACAAAAA [66%, Wbt, 22]”, the “apparent KD of MS2 coat protein” value in series [1] was 0.0243 µM; in series [2] it was 0.0263 µM.
The matching figures for “AAACCACAUGAGGAUCACCCAUGUUAGGAUAUGAACGAAAAUAAAUAAAAAUAAAAGUUCAGAAGGGACAAAAA [66%, Wbt, 21]”: 0.0149 µM and 0.0215 µM.
The matching figures for “AAACGUAGAGGAUAUACAUAAGUAUUACGAAAGUAAUACAAACAUGAGGAUCACCCAUGUAGAAGGCUACGAAA [MOD2 of Meechl's MS2 Ex2 (MS2 riboswitches - Exlclusion 2)]”: 0.028 µM and 0.0249 µM.
The matching figures for “AAAGACAGAGGAUAUACAUGAGGAUCACCCAUGUGGCGAAAAAAAAUCCAUUUGGCAUGUAGAAGGCUGUAUGA [Orerzadi]”: 0.0513 µM and 0.0669 µM.
Turning to “AAAGAGCAAGGAUAUACAUGAGGAUCACCCAUGUAUGGAGAUACAAAACAAAAGAUCAGUAGAAGGUGCGGAUG [Rageleor]”, the “apparent KD of MS2 coat protein” value in series [1] is 0.0263 µM; in series [2] it was 0.0203 µM.
The matching figures for “AAAGAUACAGGAUAUACAUGAGGAUCACCCAUGUGGAACCAAAAAUGGGAAAAAGAAAGUAGAAGGGUAUAAAA [Ex 3 May 37]”: 0.0357 µM and 0.0388 µM.
The matching figures for “AAAGAUACAGGAUAUACAUGAGGAUCACCCAUGUUAGACCAAAAAUGGGAAAAAGAAAGUAGAAGGGUAUAAAA [Ex 3 May 35]”: 0.0545 µM and 0.026 µM.
Take “AAAGAUGGAGGAUAUACAUGAGGAUCACCCAUGUGGAAAAAAAAUUGGGAAAAAGAAAGUAGAAGGCCAAAAAA [Ex 3 May 42]”: the “apparent KD of MS2 coat protein” value in series [1] was 0.155 µM; in series [2], 0.0481 µM.
The matching figures for “AAAGGACAAGGAUAUACAUGAGGAUCACCCAUGUAAAAAACAUAAUAAAAGAACUUAUGUAGAAGGUGUCCAAA [69%, Moding Meechl, 8]”: 0.177 µM and 0.0383 µM.
The matching figures for “AAAGGACAUGAGGAUCACCCAUGUGAGGAUAUGCUCUACGAACGAAUACACAUGAGAAGCAGAAGGCACAUAAG [try 1]”: 0.142 µM and 0.0438 µM.
The matching figures for “AAAGGAGCAGGAUAUACAUGAGGAUCACCCAUGUAAAAAACAUAAUAAAAGAACUUAUGUAGAAGGGCUCCAAA [69%, Moding Meechl, 10]”: 0.228 µM and 0.0482 µM.
Consider “AAAUGACAUGAGGAUCACCCAUGUCAGGAUAUGACUUGAAAAUAAAAUAAAAAACAUGUCAGAAGGGACAUGAA [Design 49: Sub-opt EB]”, for which the “apparent KD of MS2 coat protein” value was 0.0124 µM in series [1] and 0.0135 µM in series [2].
Turning to “AACAAACAUGAGGAUCACCCAUGUGAGGAUAUACAAACAAACAAAAACAAAACAAAAAGUAGAAGGCACAACAA [JR_Exc001_Sub002]”, the “apparent KD of MS2 coat protein” value in series [1] was 0.0189 µM; in series [2] it was 0.0194 µM.
The matching figures for “AACAAACAUGAGGAUCACCCAUGUGAGGAUAUGAAAAUAAAUAAAAAUAAAAUAAAAAUCAGAAGGCACAACAA [JR_Exc001_Sub003]”: 0.0282 µM and 0.0256 µM.
The matching figures for “AACAAGACAGGAUAUACAUGAGGAUCACCCAUGUCACAACAAAGCAGCGCAACACAAAGUAGAAGGGUCAUGAA [Ruby 12]”: 0.0469 µM and 0.0451 µM.
The matching figures for “AACAGUACAGGAUAUACAUGAGGAUCACCCAUGUGAAAAUUAAGUGGCGAACCACAGUGUAGAAGGGUACUGGA [Mat - Exclusion 3 - Eli mod - D51]”: 0.0335 µM and 0.0818 µM.
In the case of “AACAGUACAGGAUAUACAUGAGGAUCACCCAUGUGAAAAUUAAGUGGGAAACCACAGUGUAGAAGGGUACUGAA [Mat - Exclusion 3 - Eli mod - D55]”, the “apparent KD of MS2 coat protein” value in series [1] came out at 0.093 µM; in series [2] it was 0.12 µM.
Turning to “AACAGUACAGGAUAUACAUGAGGAUCACCCAUGUGAAGAUUAAGUGGAGUACCACAAAGUAGAAGGGUACUGGA [Ruby 89]”, the “apparent KD of MS2 coat protein” value came out at 0.101 µM in series [1] and 0.0281 µM in series [2].
The matching figures for “AACAGUACAGGAUAUACAUGAGGAUCACCCAUGUGAGAAUUAAGUGGAGUACCACAAAGUAGAAGGGUACUGGA [Mat - Exclusion 3 - JL mod - D4]”: 0.202 µM and 0.0289 µM.
In the case of “AACAGUACAGGAUAUACAUGAGGAUCACCCAUGUGAGACUUAAAAGGCGUACCUAAAAGUAGAAGGGUACUGGA [JL Maslow Revisted mod 21]”, the entries for the “apparent KD of MS2 coat protein” value in series [1] and in series [2] were 0.176 µM and 0.0561 µM, respectively.
With “AACAGUACAGGAUAUACAUGAGGAUCACCCAUGUGAGUUUUAAAAGGCGUACCUAAAAGUAGAAGGGUACUGGA [JL Maslow Revisted mod 20]”, the “apparent KD of MS2 coat protein” value stood at 0.0442 µM in series [1] and 0.0243 µM in series [2].
Take “AACAGUACAGGAUAUACAUGAGGAUCACCCAUGUGGGAGAAAAGAUCGAGAGAUCAAUGUAGAAGGGUACUGGA [JL In the Red 07]”: the “apparent KD of MS2 coat protein” value is 0.0801 µM in series [1] and 0.115 µM in series [2].
As to “AACAUGUCAGGAUAUGUAGUAAAAAGUGAUCCUCAUAAACUACAGAAGGGACAUGAGGAUCACCCAUGUAAAAA [Ex4: 930]”, the “apparent KD of MS2 coat protein” value came out at 0.0213 µM in series [1] and 0.0279 µM in series [2].
